Consider 2 molecules from paper PMC11352552.

The target of the assay is T1, recombinant human PSGL-1 Fc fusion protein (human).
T1 sequence (Q14242 whole entry, looked up): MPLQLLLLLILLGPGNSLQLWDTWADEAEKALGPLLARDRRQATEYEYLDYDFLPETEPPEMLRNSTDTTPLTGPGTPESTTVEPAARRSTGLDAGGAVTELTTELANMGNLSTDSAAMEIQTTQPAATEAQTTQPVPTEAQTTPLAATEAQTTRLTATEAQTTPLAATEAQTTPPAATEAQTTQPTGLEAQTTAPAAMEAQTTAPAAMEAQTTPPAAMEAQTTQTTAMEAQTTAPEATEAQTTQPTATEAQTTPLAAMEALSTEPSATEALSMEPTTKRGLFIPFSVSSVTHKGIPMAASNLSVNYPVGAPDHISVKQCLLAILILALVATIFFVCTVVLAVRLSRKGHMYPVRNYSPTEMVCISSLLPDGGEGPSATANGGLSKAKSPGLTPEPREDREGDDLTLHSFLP
In words: ELISA; EC50 of biotinylated P- and L-selectin binding to PSGL-1; the titration itself is not described, the values are given in the competition protocol. Background: ELISA stands for enzyme-linked immunosorbent assay.

For the molecule “biotinylated P-selectin (from UniProt P16109 42-771) (natural protein)”, the EC50 (commonly the concentration needed to bring the measured effect to its halfway point) was 1 nM.

B1: biotinylated L-selectin (natural protein)
chain: WTYHYSEKPMNWQRARRFCRDNYTDLVAIQNKAEIEYLEKTLPFSRSYYWIGIRKIGGIWTWVGTNKSLTEEAENWGDGEPNNKKNKEDCVEIYIKRNKDAGKWNDDACHKLKAALCYTASCQPWSCSGHGECVEIINNYTCNCDVGYYGPQCQFVIQCEPLEAPELGTMDCTHPLGNFSFSSQCAFSCSEGTNLTGIEETTCGPFGNWSSPEPTCQVIQCEPLSAPDLGIMNCSHPLASFSFTSACTFICSEGTELIGKKKTICESSGIWSNPSPICQKLDKSFSMIKEGDYN
modifications: biotinylated
In the case of B1, the EC50 worked out at 40 nM.
